Measurements taken from the RNAGym collection of RNA variant scans (doi:10.1073/pnas.2313332121).

B1: TPR t1 (parent)
chain: GACCAAUCUGCCCUCAGAGCUCGAGAACAUCUUCGGAUGCAGAGGAGGCAGGCUUCGGUGGCGCGAUAGCGCCAACGUCCUCAACCUCCAAUGCAUCCCACCACAUGAUGAUGCCUGAAGAGCCUUGGUUUUUUG

Variants of: B1
Test: polymerase ribozyme fitness, log enrichment relative to wild type (log ratio); higher = more active; in vitro selection for triplet polymerase activity
In short: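 Genotype fitness is the logarithm of its enrichment divided by wild-type enrichment, using inverse-variance-weighted averages of replicates. That logarithm is base 2. Enrichment was measured by Illumina sequencing of input and output libraries from one triplicate in vitro selection round, with frozen incubation at −7 °C, on PCR-built, transcribed mutant libraries of each subunit of a heterodimeric triplet polymerase ribozyme, retaining genotypes with ≥10 input reads and ≥1 read per output.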

Point of comparison: GACCAAUCUGCCCUCAGAGCUCGAGAACAUCUUCGGAUACAGAGGAGGCAGGCUUCGGUGACGCGAUAGCGCCAACGUCCUCAACCUCCAAUGCAUCCCACCACAUGAUGAUGCCUGAAGAGCCUUGGUUUUUUG, “polymerase ribozyme fitness (log ratio)” value -0.128. Against it:
- GACCAAUCUGCCCUCAGAGCUCGAGAACAUCUUCGGAUACAGAGGAGGCAUGCUUCGGUGGCGCGAUAGCGCCAACGUCCUCAACCUCCAAUGCAUCCCACCACAUGAUGAUGCCUGAAGAGCCUUGGGUUUUUG — lower, -5.53
- GACCAAUCUGCCCUCAGAGCUCGAGAACAUCUUCGGAUACAGAGGAGGCAGGCUUCGGUGGCGCGAUAGCGCCAACGUCCUCAACCUCCAAUGCAUCCCACCACAUGAUGAUGCCUGAAGAGACUUGGUUUUUUG — within 0.2 log units, -0.277
- GACCAAUCUGCCCUCAGAGCUCGAGAACAUCUUCGGAUACAGAGGAGGCAGGCUUCGGUGGCGCGAUAGCGCCAACGUCCUCAACCUCCAAUGCAUCCCACCACAUGAUGAUGCCUGAAGAGCCUUGGCUUUUUG — lower, -0.434
- GACCAAUCUGCCCUCAGAGCUCGAGAACAUCUUCGGAUACAGAGGAGGCAGGCUUCGGUGGUGCGAUAGCGCCAACGUCCUCAACCUCCAAUGCAUCCCACCACAUGAUGAUGCCUGAAGAGCCUUGGUUUUUUG — lower, -0.84
- GACCAAUCUGCCCUCAGAGCUCGAGAACAUCUUCGGAUACAGAGGAGGCAGGCUUCGGUGGGGCGAUAGCGCCAACGUCCUCAACCUCCAAUGCAUCCCACCACAUGAUGAUGCCUGAAGAGCCUUGGUUUUUUG — lower, -2.59
- GACCAAUCUGCCCUCAGAGCUCGAGAACAUCUUCGGAUACAGAGGAGGCAUGCUUCGGUGGCGCGAUAGCGCCAACGUCCUCAACCUCCAAUGCAUCCCACCACAUGAUGAUGCCUGAAGAGCCUUGGUUUUUUG — lower, -3.49
- GACCAAUCUGCCCUCAGAGCUCGAGAACAUCUUCGGAUACAGAUGAGGCAGGCUUCGGUGGCGCGAUAGCGCCAACGUCCUAAACCUCCAAUGCCUCCCACCACAUGAUGAUGCGUGAAGAGCCUUGGUUUUUUG — lower, -3.83
- GACCAAUCUGCCCUCAGAGCUCGAGAACAUCUUCGGAUCCAGCGGAGGCAGGCUUCGGUGGCGCGAUAUCGCCAACGUCCUGAACCUCCAAUGCACCCCACCACAUGAUGAUGCCUGAAGAGCCUUGGUUUUUUG — lower, -3.31
- GACCAAUCUGCCCUCAGAGCUCGAGAACAUCUUCGGAUACAGAGGAGGCAGGCAUCGGUGGCGCGAUAGCGCCAACGUCCUCAACCUCCAAUGCAUCCCACCACAUGAUGAUGCCUGAAGAGCCUUGGUUUUUUG — lower, -0.685
- GACCAAUCUGCCCUCAGAGCUCGAGAACAUCUUCGGAUACAGAGGAGGCAGGCUUCGGUGGCGCGAUAGCCCCAACGUCCUCAACCUCCAAUGCAUCCCACCACAUGAUGAUGCCUGAAGAGCCUUGGUUUUUUG — lower, -2.63
- GACCAAUCUGCCCUCAGAGCUCGAGAACAUCUUCGGAUACAGAGGAGGCAGGCUUCGGUGGCGCGAUAGCGCCAACGUCCUCAACCUCCAAUGCAUCCCACCAAAUGAUGAUGCCUGAAGAGCCUUGGUUUUUUG — lower, -2.08
- GACCAAUCUGCCCUCAGAGCUCGAGAACAUCUUCGGAUACAGAGGAGGCAGGCUUCGGUGGCGCGAUAGCGCCAACGUCCUCAACCUCCAAUGCAUCCCACCAUAUGAUGAUGCCUGAAGAGCCUUGGUUUUUUG — lower, -0.931
- GACCAAUCUGCCCUCAGAGCUCGAGAACAUCUUCGGAUACAGAGGAGGAAGGCUUCGGUGGCGCGAUAGCGCCAACGUCCUCAACCUCCAAUGCAUCCCACCACAUGAUGAUGCCUGAAGAGCCUUGGUUUUUUG — lower, -0.508
- GACCAAUCUGCCCUCAGAGCUCGAGAACAUCUUCGGAUACAGAGGAGGCAGGCUUCGGUGGCGCGAUAGCGCCAACGUCCUCAACCUCCAAUGCAUCCCACCACAUGAUGAUGCCUGAAGAGCCUUGGUUUUUUC — within 0.2 log units, -0.0346
- GACCAAUCUGCCCUCAGAGCUCGAGAACAUCUUCGGAUACAGAGGAGACAGGCUUGGGUGGCGCGAUAUCGCCAACGUCCUCAACCUCCAAUGCAUCCCACCACCUGAUGAUGCCUGAAGAGCCUUGGUUUUUUG — lower, -2.52
- GACCAAUCUGCCCUCAGAGCUCGAGAACAUCUUCGGAUACAGAGGAGGCAGGCUUCGGUGGCGCGAUAGCGCCAACGCCCUCAACCUCCAAUGCAUCCCACCACAUGAUGAUGCCUGAAGAGCCUUGGUUUUUUG — lower, -1.06
- GACCAAUCUGCCCUCAGAGCUCGAGAACAUCUUCGGAUACAGAGGAGGCAGGCUUUGGUGGCGCGAUAGCGCCAACGUCCUCAACCUCCAAUGCAUCCCACCACAUGAUGAUGCCUGAAGAGCCUUGGUUUUUUG — lower, -0.755
- GACCAAUCUGCCCUCAGAGCUCGAGAACAUCUUCGGAUACAGAGGAGGCAGGCUUCGGUGGCGCGAUAGCGCCAACGUCCUCAACCUCCAAUGCAUCCCACCACAUGAUGAUGCCUGAAGAGCUUUGGUUUUUUG — higher, 1.26
- GACCAAUCUGCCCUCAGAGCUCGAGAACAUCUUCGGAUACAGAGGAGGCAGGCUUCGGUGGCGCGAUAGCGCCAACGUCCUCAACCUCCAAUGCAUCCCACCACAUGAUGAUGCCUGAAGAGCCUUGAUUUUUUG — lower, -2.58
- GACCAAUCUGCCCUCAGAGCUCGAGAACAUCUUCGGAUACAGACGAGGCAGGCUUCGGUGGCGCGAUAGCGCCAACGUCCUCAACCUCCAAUGCAUCCCACCACAUGAUGAUGCCUGAAGAGCCUUGGUUUUUUG — lower, -1.34
- GACCAAUCUGCCCUCAGAGCUCGAGAACAUCUUCGGAUCAAGAGGAGGCAGGCUUCGGUGGCGCGAUAGCGCCAACGUCCUCAACCUCCAAUGCAUCCCACCACAUGAUGAUGCCUGAAGAGCCUUGGUUUUUUG — lower, -3.01
- GACCAAUCUGCCCUCAGAGCUCGAGAACAUCUUCGGAUACAGAGGAGGCAGGCUUCGGUGGCGCGAUAGCGCCAACGUCAUCAACCUCCAAUGCAUCUCACCACAUGAUGAUGCCUGAAGAGCCUUGGUUUUAUG — lower, -6.34
- GACCAAUCUGCCCUCAGAGCUCGAGAACAUCUUCGGAUACAGAGCAGGCAGGCUUCGGUGGCGCGAUAGCGCCAACGUCCUCAACCUCCAAUGCAUCCCACCACAUGAUGAUGCCUGAAGAGCCUUGGUUUUUUG — lower, -2.32
- GACCAAUCUGCCCUCAGAGCUCGAGAACAUCUUCGGAUACAGAGGAGGCAGGCUUCGGUGGCGCGAUAGCGCCAACGUCCUCAACCUCCAAUGCAUCCCACCACAUGAUUAUGCCUGAAGAGCCUUGGUUUUUUG — lower, -2.32
- GACCAAUCUGCCCUCAGAGCUCGAGAACAUCUUCGGAUACAGAGGAGCCAGGCUUCGGUGGCGCGAUAGCGCCAACGUCCUCAACCUCCAAUGCAUCCCACCACAUGAUGAUGCCUGAAGAGCCUUGGUUUUUUG — lower, -1.23
- GACCAAUCUGCCCUCAGAGCUCGAGAACAUCUUCGGAUACAGAGGAGGCAGGCUUCGGUGGCGCGAUAGCGCAAACGUCCUCAACCUCCAAUUCAUCCCACCACAUGAUGAUGCCUGAAGAGCCUUGGUUUUUUG — lower, -2.29
- GACCAAUCUGCCCUCAGAGCUCGAGAACAUCUUCGGAUACAGAGGAGGCAGGCUUCGGUGGCGCGAUAGCGCCAACGUCCUCAACCUACAAUGCAUCCCACCACAUGAUGAUGCCUGAAGAGCCUUGGUUUUUUG — lower, -1.32
- GACCAAUCUGCCCUCAGAGCUCGAGAACAUCUUCGGAUACAGAGGAGUCAGGCUUCGGUGGCGCGAUAGCUCCAACGUCCUCAACCUCCAAUGCAUCCCACCACAUGAUGAUGCCAGAAGAGCCUUGGAUUUUUG — lower, -5.41
- GACCAAUCUGCCCUCAGAGCUCGAGAACAUCUUCGGAUACAGAGGAGGCAGGCUUCGGUGGCGCGAUAGCGCCAACGUCCUCUACCUCCAAUGCAUCCCACCACAAGAUGAUGUCUGAAGAGCCUUGGUUUUUUG — lower, -4.87
- GACCAAUCUGCCCUCAGAGCUCGAGAACAUCUUCGGAUACAGAGGAGGCAGGCUUCGGUGGCGCGAUAGCGCCAACGUCCUCAACCUCCAAUACAUCCCACCACAUGAUGAGGCCUGAAGAGACUUGGUUUUUUG — lower, -3.6
- GACCAAUCUGCCCUCAGAGCUCGAGAACAUCUUCGGAUCCAGAGGAGGUAGGCUUCGGUGGCGCGAUAGCGCCAACGUCCUCAACCUCCAAUGCAUCCCACCACAUGAUGAUGCCUGAAGAGCCUUGGUUUUUUG — lower, -1.61
- GACCAAUCUGCCCUCAGAGCUCGAGAACAUCUUCGGAUACAGAGGAGGCAGGCUUCGGUGGCGCGAUAGCGCUAACGUCCUCAACCUCCAAUGCAUCCCACCACAAGACGAUACCUAAAGAGCCUUGGUUUUUUG — lower, -5.45
- GACCAAUCUGCCCUCAGAGCUCGAGAACAUCUUCGGAUACAGAGGAGGCAGGCUUCGGUGGCGCGAUAGCGUCAACGCCCUCAACCUCCAAUGCAUCCUACCACAUGAUGAUGCCUGAAAAGCCUCGGUUUUUUG — lower, -2.95
- GACCAAUCUGCCCUCAGAGCUCGAGAACAUCUUCGGAUACAGAGCAGGCAGGCUUCGGUUGCGCGAUAUCGCCAACGUCCUUAACCUCCAAUGCAUCCCACCACAUGAUGAUGCCUGAAGAGCCUUGGUUUUUUG — lower, -5.66
- GACCAAUCUGCCCUCAGAGCUCGAGAACAUCUUCGGAUACAGAGGAGGAAGGCUUCGGUGGCGCGAUAGCGCCAACGUCCUCAACCUCCAAUGCAUCACACCACAUGAUGACGCCUGAAGAGCCUUGGUUUUUUG — lower, -3.94
- GACCAAUCUGCCCUCAGAGCUCGAGAACAUCUUCGGAUACAGAGGAGGCAGGCUUCGGUGGCGCGCUAGCGCCAACGUCCUCAACGUCCAAUGCAUCCCACCACAUGAUGAUGCCUGAAGAGCCUUGGUUUUUUG — lower, -2.29
- GACCAAUCUGCCCUCAGAGCUCGAGAACAUCUUCGGAUACAGAGGAGGCAGGCUUCGGUGGCGCGAUAGCGCCAACGUCCUCAACCUCCAAUGUAUCCCACCACAUGAUGAUGCCUGAAGAGCCUUGGUUUUUUG — lower, -0.565
- GACCAAUCUGCCCUCAGAGCUCGAGAACAUCUUCGGAUACAGAGGAGGGAGGCUUCGGUGGGGCGAUAGCGCCAACGUCCUCAACCUCCCAUGCAUCCCACCACAUGAUGAUACCUGAAGAGCCUUGGUUUUUUG — lower, -6.39
- GACCAAUCUGCCCUCAGAGCUCGAGAACAUCUUCGGAUACAGAGGAGGCAGGCUUCGGUGGCGUGAUAGCGCCAACGUCCUCAACCUCCGAUGCAUCCCACCACAUGAUGAUGCCUGAAGAGCCUUGGUUUUUUU — lower, -1.27
- GACCAAUCUGCCCUCAGAGCUCGAGAACAUCUUCGGAUACAGAGGAGGCAGGCUUCGGUGGCGCGAUAGCGCCAACGUCCUCAACCUCCAAUGCAUCCCACUACAUGAUGAUGCCUGGAGAGCCUUGGUUUUUUG — lower, -2.73
- GACCAAUCUGCCCUCAGAGCUCGAGAACAUCUUCGGAUACAGAGGAGGCAGGCUUCGGUGGCGCGAUAGCGCCAACGUCCUCAACCUCCAAUGCAUCCCACCACAUGAUGCUGCCUGAAGAGCCUUGGUUUUUUG — within 0.2 log units, -0.291
